{"source": "patent US7070977", "system": "PFEK-protease D-G-6×HIS zymogen", "sequence (chain, as listed by the source)": "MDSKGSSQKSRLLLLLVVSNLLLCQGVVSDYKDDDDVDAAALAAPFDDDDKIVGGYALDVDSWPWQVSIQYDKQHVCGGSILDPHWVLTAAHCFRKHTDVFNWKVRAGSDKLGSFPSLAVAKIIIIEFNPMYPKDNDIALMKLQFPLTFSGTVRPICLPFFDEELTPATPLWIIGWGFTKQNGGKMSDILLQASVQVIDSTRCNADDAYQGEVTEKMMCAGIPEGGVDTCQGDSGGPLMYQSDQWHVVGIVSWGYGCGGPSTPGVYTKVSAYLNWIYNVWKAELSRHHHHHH", "data": [{"substance": "enterokinase", "values": [{"measurement": "cleavage and activation of the zymogen (SDS-PAGE mobility shift and Western blot)", "value": "This demonstrates the quantitative cleavage of the expressed and purified zymogen to generate the processed and activated protease"}]}]}
